Target: bovine brain microtubules (bovine) (UniProt Q6B856)
Experiment: co-sedimentation

Kd: 1000 to 2000 nM
B1: GST-CSAP (glutathione S-transferase fusion with full-length centriole and spindle-associated protein) (natural protein)
chain: MSPGSGVKSEYMKRYQEPRWEEYGPCYRELLHYRLGRRLLEQAHAPWLWDDWGPAGSSEDSASSESSGAGGPAPRCAPPSPPPPVEPATQEEAERRARGAPEEQDAEAGDAEAEDAEDAALPALPVKDVEDKPEQQTRTRETDKSPTSTEPRQQPSALFARGNRKAVKSPQRSSSKIKENKHPFALYGWGEKQTDTGSQKTHNVCASAPVHEIHESALRAKNRRQVEKRKLVAQRQRAHSVDVEKNRKMKASSSENPWMTEYMRCYSARA

Reference: article PMC3364176
